According to patent US20230265151A1, “GIP/GLP1 CO-AGONIST COMPOUNDS” (priority 2020, published 2023):

T1: human GIP receptor (human, UniProt P48546 22-466)
T1 sequence (looked up): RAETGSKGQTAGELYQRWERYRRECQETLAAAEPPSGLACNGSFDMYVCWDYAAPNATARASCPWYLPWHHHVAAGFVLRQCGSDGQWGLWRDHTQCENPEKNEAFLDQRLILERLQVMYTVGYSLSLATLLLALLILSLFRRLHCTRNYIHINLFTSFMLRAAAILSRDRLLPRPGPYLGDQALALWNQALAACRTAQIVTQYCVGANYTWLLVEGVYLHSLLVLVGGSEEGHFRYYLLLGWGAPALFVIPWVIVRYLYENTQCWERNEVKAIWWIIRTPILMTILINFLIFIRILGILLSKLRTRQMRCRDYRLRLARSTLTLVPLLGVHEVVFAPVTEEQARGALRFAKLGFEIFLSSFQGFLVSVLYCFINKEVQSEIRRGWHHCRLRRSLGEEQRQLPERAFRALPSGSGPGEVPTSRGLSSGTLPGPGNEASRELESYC

T2: human GIP receptor (human) (UniProt P48546)
T2 sequence (looked up): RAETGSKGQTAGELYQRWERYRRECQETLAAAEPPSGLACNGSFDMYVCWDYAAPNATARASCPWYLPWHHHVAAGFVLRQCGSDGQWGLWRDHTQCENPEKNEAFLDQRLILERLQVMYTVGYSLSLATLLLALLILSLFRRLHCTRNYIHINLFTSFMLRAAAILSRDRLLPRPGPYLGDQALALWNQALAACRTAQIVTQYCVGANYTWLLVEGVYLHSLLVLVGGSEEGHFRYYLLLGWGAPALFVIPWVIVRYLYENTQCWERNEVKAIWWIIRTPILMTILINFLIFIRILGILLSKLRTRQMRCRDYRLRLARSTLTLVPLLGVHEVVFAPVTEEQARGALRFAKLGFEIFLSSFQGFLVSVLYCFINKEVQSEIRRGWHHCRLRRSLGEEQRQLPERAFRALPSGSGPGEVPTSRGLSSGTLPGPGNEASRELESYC

T3: human GIP receptor (human, UniProt P48546 22-466)
T3 sequence (looked up): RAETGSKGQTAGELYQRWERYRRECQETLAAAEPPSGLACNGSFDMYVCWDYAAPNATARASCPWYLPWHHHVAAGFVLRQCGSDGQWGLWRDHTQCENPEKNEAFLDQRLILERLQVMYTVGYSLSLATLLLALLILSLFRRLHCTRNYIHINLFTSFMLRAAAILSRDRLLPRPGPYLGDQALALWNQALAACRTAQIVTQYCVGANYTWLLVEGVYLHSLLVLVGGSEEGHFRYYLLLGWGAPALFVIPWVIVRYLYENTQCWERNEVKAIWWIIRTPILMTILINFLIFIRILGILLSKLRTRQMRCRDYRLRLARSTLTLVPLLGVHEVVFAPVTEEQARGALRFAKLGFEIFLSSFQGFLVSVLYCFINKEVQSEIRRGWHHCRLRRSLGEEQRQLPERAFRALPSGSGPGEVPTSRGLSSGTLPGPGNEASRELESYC


What was measured:
Test in all cases: cell-based or functional assay
human GIP receptor [1] = biological target: T1, human GIP receptor
human glucagon receptor [2] = biological target: human glucagon receptor (human, UniProt P47871 26-477)
hGLP-1R = hGLP-1R (Homo sapiens, UniProt P43220)
[3] = biological target: T2, human GIP receptor (human)
[4] = biological target: human glucagon receptor (human) (UniProt P47871)
human GIP receptor [5] = biological target: T3, human GIP receptor; remark: listed apart in the source
human GLP-1 receptor = human GLP-1 receptor (human, UniProt P43220 24-463)
human glucagon receptor [6] = biological target: human glucagon receptor (human, UniProt P47871 26-477); remark: listed apart in the source
Target sequence in this assay (P47871 26-477): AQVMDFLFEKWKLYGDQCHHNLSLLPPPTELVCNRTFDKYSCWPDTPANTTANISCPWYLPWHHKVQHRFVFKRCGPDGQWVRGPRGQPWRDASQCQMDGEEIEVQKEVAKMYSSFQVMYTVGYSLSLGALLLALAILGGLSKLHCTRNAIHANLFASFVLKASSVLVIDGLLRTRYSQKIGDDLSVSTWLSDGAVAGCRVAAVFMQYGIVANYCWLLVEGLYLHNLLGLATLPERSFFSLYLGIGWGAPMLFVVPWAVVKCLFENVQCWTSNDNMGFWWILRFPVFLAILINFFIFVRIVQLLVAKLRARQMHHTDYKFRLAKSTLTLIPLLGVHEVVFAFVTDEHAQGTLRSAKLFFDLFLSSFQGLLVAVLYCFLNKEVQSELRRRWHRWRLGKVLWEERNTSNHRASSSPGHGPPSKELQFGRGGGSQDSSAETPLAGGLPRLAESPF

Row | Binder | cAMP EC50 (1.0% HSA) (human GIP receptor [1]) [nM] | cAMP EC50 (1.0% HSA) (human glucagon receptor [2]) [µM] | cAMP EC50 (hGLP-1R) [nM] | cAMP Emax (hGLP-1R) [%] | cAMP EC50 [3] [nM] | cAMP Emax [3] [%] | cAMP EC50 [4] [µM] | cAMP EC50 (1.0% HSA) (human GIP receptor [5]) [nM] | cAMP Emax (1.0% HSA) (human GIP receptor [5]) [%] | cAMP EC50 (1.0% HSA) (human GLP-1 receptor) [nM] | cAMP Emax (1.0% HSA) (human GLP-1 receptor) [%] | cAMP EC50 (1.0% HSA) (human glucagon receptor [6]) [µM]
1 | YXEGTXTSDXSIXLDXIAQXEFIXXLIKGGKSSGAPPPS (Aib2, αMeF(2F)6, 4Pal10, αMeL13, Orn16, Aib20, D-Glu24, αMeY25; acylated K28, K31 (groups as in name); C-terminal amide) [Y-Aib-EGT-αMeF(2F)-TSD-4Pal-SI-αMeL-LD-Orn-IAQ-Aib-EFI-(D-Glu)-αMeY-LIK((2-[2-(2-Amino-ethoxy)-ethoxy]-acetyl)2-(γ-Glu)-CO-(CH2)12-CO2H)GGK((2-[2-(2-Amino-ethox …, listing 1 of 2 here] | 1.66 | > 9.95 |  |  |  |  |  |  |  |  |  | 
2 | YXEGTXTSDXSIXLDXIAQXEFIKXLIEGGKSSGAPPPS (Aib2, αMeF(2F)6, 4Pal10, αMeL13, Orn16, Aib20, αMeY25; acylated K24, K31 (groups as in name); C-terminal amide) [Y-Aib-EGT-αMeF(2F)-TSD-4Pal-SI-αMeL-LD-Orn-IAQ-Aib-EFIK((2-[2-(2-Amino-ethoxy)-ethoxy]-acetyl)2-CO-(CH2)12-CO2H)-αMeY-LIEGGK((2-[2-(2-Amino-ethoxy)-ethoxy]-acet …, listing 1 of 2 here] | 1.47 | > 9.95 |  |  |  |  |  |  |  |  |  | 
3 | YXEGTXTSDXSIXLDXIAQXEFIKXLIEGGKSSGAPPPS (Aib2, αMeF(2F)6, 4Pal10, αMeL13, Orn16, Aib20, αMeY25; acylated K24, K31 (groups as in name); C-terminal amide) [Y-Aib-EGT-αMeF(2F)-TSD-4Pal-SI-αMeL-LD-Orn-IAQ-Aib-EFIK((2-[2-(2-Amino-ethoxy)-ethoxy]-acetyl)2-(γ-Glu)-CO-(CH2)12-CO2H)-αMeY-LIEGGK((2-[2-(2-Amino-ethoxy)-etho …, listing 2 of 2 here] | 3.07 | > 9.95 |  |  |  |  |  |  |  |  |  | 
4 | YXEGTXTSDXSIXLDXIAQXEFIKXLIKGGPSSGAPPPS (Aib2, αMeF(2F)6, 4Pal10, αMeL13, Orn16, Aib20, αMeY25; acylated K24, K28 (groups as in name); C-terminal amide) [Y-Aib-EGT-αMeF(2F)-TSD-4Pal-SI-αMeL-LD-Orn-IAQ-Aib-EFIK((2-[2-(2-Amino-ethoxy)-ethoxy]-acetyl)2-(γ-Glu)-CO-(CH2)12-CO2H)-αMeY-LIK((2-[2-(2-Amino-ethoxy)-ethoxy] …, listing 1 of 2 here] | 1.73 | > 9.95 |  |  |  |  |  |  |  |  |  | 
5 | YXEGTXTSDXSIXLDXIAQXEFIXXLIKGGKSSGAPPPS (Aib2, αMeF(2F)6, 4Pal10, αMeL13, Orn16, Aib20, D-Glu24, αMeY25; acylated K28, K31 (groups as in name); C-terminal amide) [Y-Aib-EGT-αMeF(2F)-TSD-4Pal-SI-αMeL-LD-Orn-IAQ-Aib-EFI-(D-Glu)-αMeY-LIK((2-[2-(2-Amino-ethoxy)-ethoxy]-acetyl)2-(γ-Glu)-CO-(CH2)14-CH3)GGK((2-[2-(2-Amino-ethoxy …, listing 2 of 2 here] | 1.2 | > 9.95 |  |  |  |  |  |  |  |  |  | 
6 | YXEGTXTSDXSIXLDXIAQXEFIKXLIKGGPSSGAPPPS (Aib2, αMeF(2F)6, 4Pal10, αMeL13, Orn16, Aib20, αMeY25; acylated K24, K28 (groups as in name); C-terminal amide) [Y-Aib-EGT-αMeF(2F)-TSD-4Pal-SI-αMeL-LD-Orn-IAQ-Aib-EFIK((2-[2-(2-Amino-ethoxy)-ethoxy]-acetyl)2-CO-(CH2)12-CO2H)-αMeY-LIK((2-[2-(2-Amino-ethoxy)-ethoxy]-acetyl) …, listing 2 of 2 here] | 0.832 | > 9.95 |  |  |  |  |  |  |  |  |  | 
7 | YXEGTXTSDXXIXLDXKAQXKXIXXLIEGGPSSGAPPPS (not fully specified; Y-Aib-EGT-αMeF(2F)-TSD-4Pal-Aib-I-αMeL-LD-Orn-K((2-[2-(2-Amino-ethoxy)-ethoxy]-acetyl)2-(γ Glu)-CO-(CH2)10H3)AQ-Aib-K((2-[2-(2-Amino-ethoxy)-ethoxy]-acetyl)2-(γGlu)-CO-(CH2)10C3)-αMeFI-(D-Glu)-αMeY-LIEGGPSSGAPPPS-NH2) [Example 430] |  |  | 0.342 | 93.1 | 0.0175 | 107 | > 9.95 | 1.09 | 91.5 | 26.8 | 88.5 | > 9.95
8 | YXEGTXTSDKXIXLDXKAQXXFIXXLIEGGPSSGAPPPS (Y-Aib-EGT-αMeF(2F)-TSDK((2-[2-(2-Amino-ethoxy)-ethoxy]-acetyl)3-(γ-Glu)-CO-(CH2)10-CH3)-Aib-I-αMeL-LD-Orn-K((2-[2-(2-Amino-ethoxy)-ethoxy]-acetyl)3-(γ-Glu)-CO-(CH2)10-CH3)AQ-Aib-Orn-FI-(D-Glu)-αMeY-LIEGGPSSGAPPPS-NH2) [Example 432] |  |  | 0.0549 | 106 | 0.00602 |  | > 9.95 | 0.0875 |  | 1.28 |  | > 9.95
9 | YXEGTXTSDXXIXLDXKAQXEXIXXLIKGGPSSGAPPPS (Y-Aib-EGT-αMeF(2F)-TSD-4Pal-Aib-I-αMeL-LD-Orn-K((2-[2-(2-Amino-ethoxy)-ethoxy]-acetyl)3-(γ-Glu)-CO-(CH2)10-CH3)AQ-Aib-E-αMeF-I-(D-Glu)-αMeY-LIK((2-[2-(2-Amino-ethoxy)-ethoxy]-acetyl)3-(γ-Glu)-CO-(CH2)10-CH3)GGPSSGAPPPS-NH2) [Example 438] |  |  | 0.471 | 88.5 | 0.0157 | 98.9 | > 9.95 | 0.592 | 90.8 | 28 | 88.7 | > 9.95
10 | YXEGTXTSDXSIXLDXIAQXKFIXXLIEGGKSSGAPPPS (Aib2, αMeF(2F)6, 4Pal10, αMeL13, Orn16, Aib20, D-Glu24, αMeY25; acylated K21, K31 (groups as in name); C-terminal amide) | 0.771 | > 9.95 |  |  |  |  |  |  |  |  |  | 
11 | YXEGTXTSDXXIXLDXKAQXXFIXXLIKGGPSSGAPPPS (Y-Aib-EGT-αMeF(2F)-TSD-4Pal-Aib-I-αMeL-LD-Orn-K((2-[2-(2-Amino-ethoxy)-ethoxy]-acetyl)3-(γ-Glu)-CO-(CH2)10-CH3)AQ-Aib-Orn-FI-(D-Glu)-αMeY-LIK((2-[2-(2-Amino-ethoxy)-ethoxy]-acetyl)3-(γ-Glu)-CO-(CH2)10-CH3)GGPSSGAPPPS-NH2) [Example 434] |  |  | 0.0837 | 104 | 0.00704 | 98.3 | > 9.95 | 0.0994 | 97.5 | 1.73 |  | > 9.95
